Experimental data reported in patent US20090208453A1 (NURON BIOTECH, published 2009).

Target: T1, recombinant human interferon-alpha/beta R2 receptor Fc chimera (R&D Systems, Product 4015-AB) (human, UniProt P48551 27-243)
T1 construct: Bought reagent, coated onto ELISA plates; also called rhIFN-R2 Fc; Fc part of the bought chimera not given
T1 sequence (looked up): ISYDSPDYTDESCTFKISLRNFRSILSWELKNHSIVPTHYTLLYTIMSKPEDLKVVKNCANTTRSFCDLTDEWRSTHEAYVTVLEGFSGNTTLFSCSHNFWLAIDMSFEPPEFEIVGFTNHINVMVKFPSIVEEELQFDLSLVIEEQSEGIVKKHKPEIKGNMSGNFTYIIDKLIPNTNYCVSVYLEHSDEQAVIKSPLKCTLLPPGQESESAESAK
Test: Receptor binding (competition): displacement of 125I-IFN-alpha from plate-coated rhIFN-R2 Fc; untreated and RP-HPLC-purified samples
Experimental: Receptor binding competition assays were performed using purified rhIFN-beta1b from Bar 25 protein and BETASERON, and unprocessed Bar 25 protein and BETASERON. The assay was performed using the recombinant human interferon-alpha/beta R2 receptor Fc (rhIFN-R2 Fc) chimera (R&D Systems, Product 4015-AB). This receptor binds both interferon-alpha and interferon-beta. ¹²⁵I-human interferon-alpha (¹²⁵I-IFN-alpha) was used as the competing reagent to avoid potential effects of radiolabeling on the rhIFN-beta1b products. rhIFN-R2 Fc was coated onto ELISA plates and ¹²⁵I-IFN-alpha was added at a fixed concentration to each well. […] Unlabeled IFN-alpha was used as a control. The amount of ¹²⁵I-IFN-alpha remaining bound to rhIFN-R2 Fc after the competition was measured and plotted as a function of the rhIFN-beta1b concentration. The resulting curves for each product and purified rhIFN-beta1b sample were compared.

binding result: binds
B1: Bar 25 protein (recombinant human interferon beta-1b, C17S IFN-beta-1b, refolded under high pressure) (ligand)
chain: SYNLLGFLQRSSNFQSQKLLWQLNGRLEYCLKDRMNFDIPEEIKQLQQFQKEDAALTIYEMLQNIFAIFRQDSSSTGWNETIVENLLANVYHQINHLKTVLEEKLEKEDFTRGKLMSSLHLKRYYGRILHYLKAKEYSHCAWTIVRVEILRNFYFINRLTGYLRN
notes: Non-glycosylated, expressed in E. coli; It was tested untreated and after RP-HPLC/SEC-HPLC isolation; The research-grade material was partially deamidated; also called rhIFN beta-1b; rhIFN-beta1b
